This is an account of results in patent US20110165066A1 (AbbVie / Abbott, published 2011).

Experiment [1] has as its target T1, human IL-13 wild type (human, UniProt P35225 35-146).
T1 construct: also called h IL-13; h IL-13 wt
In words: SPR (Biacore), mAb captured, IL-13 as analyte. On the procedure:
(§1) The BIACORE assay (Biacore, Inc, Piscataway, N.J.) determines the affinity of antibodies with kinetic measurements of on-, off-rate constants. […] All chemicals were obtained from Biacore® AB (Uppsala, Sweden) or otherwise from a different source as described in the text. Approximately 5000 RU of goat anti-mouse IgG, (Fcγ), fragment specific polyclonal antibody (Pierce Biotechnology Inc, Rockford, Ill.) diluted in 10 mM sodium acetate (pH 4.5) was directly immobilized across a CM5 research grade biosensor chip using a standard amine coupling kit according to manufacturer's instructions and procedures at 25 μg/ml. Unreacted moieties on the biosensor surface were blocked with ethanolamine. Modified carboxymethyl dextran surface in flowcell 2 and 4 was used as a reaction surface. Unmodified carboxymethyl dextran without goat anti-mouse IgG in flow cell 1 and 3 was used as the reference surface. For kinetic analysis, rate equations derived from the 1:1 Langmuir binding model were fitted simultaneously to association and dissociation phases of all eight injections (using global fit analysis) with the use of Biaevaluation 4.0.1 software. Purified antibodies were diluted in HEPES-buffered saline for capture across goat anti-mouse IgG specific reaction surfaces. Mouse antibodies to be captured as a ligand (25 μg/ml) were injected over reaction matrices at a flow rate of 5 μl/min. The association and dissociation rate constants, kₒₙ (unit M⁻¹s⁻¹) and koff (unit s⁻¹) were determined under a continuous flow rate of 25 μl/min Rate constants were derived by making kinetic binding measurements at ten different antigen concentrations ranging from 10-200 nM. […] Binding is recorded as a function of time and kinetic rate constants are calculated.

In experiment [2] the target is T2, human IL-13 variant (R130Q) (human, UniProt P35225 35-146).
T2 construct: called R110Q in the assay descriptions (mature numbering); also called h IL-13v; hIL-13v
The experiment can be described thus: SPR (Biacore), mAb captured, IL-13 as analyte. On the procedure: as §1
For orientation: Surface plasmon resonance follows binding to a sensor surface in real time, without labels.

In experiment [3] the target is T1, human IL-13 wild type. In words: cell-based or functional assay.
The target of experiment [4] is cynomolgus IL-13 (cynomolgus, UniProt Q0PW92 21-132). In words: cell-based or functional assay.
Experiment [5] concerns the target T2, human IL-13 variant (R130Q). In words: cell-based or functional assay.
In experiment [6] the target is T3, mouse IL-13 (mouse, UniProt P20109 26-131, limits assumed).
T3 construct: also called mIL-13; murine IL-13
T3 sequence (looked up): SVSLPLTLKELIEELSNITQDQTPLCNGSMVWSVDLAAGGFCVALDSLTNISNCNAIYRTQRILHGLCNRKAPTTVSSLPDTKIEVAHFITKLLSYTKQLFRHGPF
The experiment can be described thus: indirect ELISA, captured mAb, biotinylated mouse IL-13. On the procedure:
Murine anti-human IL-13 mAbs were prepared at various concentrations ranging from 0.1 to 100 ng/ml in PBS containing 0.1% BSA; 50 ul of each antibody dilution was added to the coated ELISA plate and incubated for 1 hour at room temperature. Wells were washed 3 times with PBS containing 0.05% Tween-20. […] Wells were washed 3 times with PBS containing 0.05% Tween-20. Streptavidin HRP (Pierce #21126, Rockland, Ill.) was diluted 1:20000 in PBS containing 0.1% BSA; […] was added and the plates incubated for 1 hour at room temperature. Plates were washed 3 times with PBS containing 0.05% Tween-20. Fifty microliters of TMB solution (Sigma # T0440, St. Louis, Mo.) was added to each well and incubated for 10 minutes at room temperature. The reaction was stopped by addition of 1N sulphuric acid. Plates were read spectrophotmetrically at a wavelength of 450 nm.
On the technique in general: ELISA stands for enzyme-linked immunosorbent assay.

Residue numbers refer to the chain shown, from its start.

Chain of cynomolgus IL-13 (Q0PW92 entry or part of it): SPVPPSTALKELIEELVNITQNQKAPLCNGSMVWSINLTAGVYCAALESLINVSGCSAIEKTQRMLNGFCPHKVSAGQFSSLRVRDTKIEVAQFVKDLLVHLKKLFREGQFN
T1 sequence (P35225 other isoform, or with tags, fused parts or gaps limits assumed): as the sequence (Q0PW92 entry or part of it) above, with S1G, K10R, V42M, N67S, R83H, V100L, Q110R counted along it
T2 sequence (P35225 35-146 limits assumed, stated change not applied): as the sequence (Q0PW92 entry or part of it) above, with S1G, K10R, V42M, N67S, R83H, V100L counted along it

B1: 1B6 (antibody, V domains shown)
VH: QVQLKESGPGLVAPSQSLSITCTVSGFSLTGYGVNWVRQPPGKGLEWLGMIWGDERIDYNSALKSRLSITKDNSKSQVFLKMNSLQTDDTGRYFCARDGYFPYAMDYWGQGTSVTVSS
VL: NIVLTQSPASLAVSLGQRATISCRASETVDSYGKSYLHWYQQKPGQPPKLLIYLASNLESGVPARFSGSGSRTDFTLIIDPVEADDAATYYCQQNNEGPRTFGGGTKLEIKR
In the case of B1, the Kd (as a rule, a measure of binding affinity in units of concentration) in experiment [1] is 0.545 nM; in experiment [2], 0.21 nM. In addition, the koff – broadly, the rate constant with which the complex falls apart – in experiment [1] is 0.000518 s⁻¹; in experiment [2], 0.000222 s⁻¹. In addition, the results for the kon in experiment [1] and in experiment [2] were 951000 M⁻¹ s⁻¹ and 1.06e+06 M⁻¹ s⁻¹, respectively. In addition, the figures for the “Average IC50, IL-13-induced TARC production by A-549 cells” value (from here on “Average IC50”) in experiment [3], in experiment [4] and in experiment [5] were 0.84 nM, 0.521 nM and 0.24 nM, respectively. For the same molecule, in experiment [6], the binding result is given as “no binding (tested: 0.1 to 100 ng/ml)”.

B2: 6C8 (antibody, V domains shown)
VH: B1 VH with G26E, Y32S, G33S, E55G, T70S, G91A, F94Y, F101Y, D106N
VL: B1 VL with T28S, K34N, Y36F, L37M, T73A, I78T, G98N
For B2, the equilibrium dissociation constant (Kd) in experiment [1] turned out to be 0.484 nM; in experiment [2] it was 0.403 nM. The koff was determined as 0.000702 s⁻¹ in experiment [1] and 0.000394 s⁻¹ in experiment [2]. In addition, the kon (commonly the second-order rate constant of association) was 1.45e+06 M⁻¹ s⁻¹ in experiment [1] and 978000 M⁻¹ s⁻¹ in experiment [2]. For the same molecule, the results for the “Average IC50” value in experiment [3], in experiment [4] and in experiment [5] were 0.72 nM, 0.161 nM and 0.34 nM, respectively. In experiment [6], the binding result was “no binding (tested: 0.1 to 100 ng/ml)”.

B3: 8B6 (antibody, V domains shown)
VH: QVQLKESGPGLVAPSQSLSITCTVSGFSLTGHNINWVRQPPGKGLEWLGMIWGDGNTDFNSALKSRLSISKDNSKSQVFLKLNSLQTDDTARYYCARDGYYPYAIKFWGQGTSVTVSS
VL: B1 VL with N1H, K34S, Y36F, N57K, I78T, T106S
In experiment [1], B3 displayed a Kd of 0.523 nM, a koff of 0.000607 s⁻¹ and a kon of 1.16e+06 M⁻¹ s⁻¹. In experiment [2], this molecule came in with an equilibrium dissociation constant (Kd) of 0.976 nM, a koff of 0.00096 s⁻¹ and an on-rate constant (kon) of 983000 M⁻¹ s⁻¹. In addition, the “Average IC50” value in experiment [4] worked out at 0.395 nM. The “Average IC50” value in experiment [5] was determined as 0.48 nM. In addition, the binding result in experiment [6] is “no binding (tested: 0.1 to 100 ng/ml)”.

B4: 3E5 (antibody, V domains shown)
VH: QVQLKESGPGLVAPSQSLSITCTVSGFSLTGSSINWVRQPPGKGLEWLGMIWGDGRIDYNSVLKSRLSISKDSSKSQVFLKMNSLQADDTARYYCARDGYYPYAMVYWGQGTSVTVSS
VL: B1 VL with S22F, T28S, K34N, Y36F, L37M, P44S, I78T, Y90F, G98N
In the case of B4, the Kd stood at 0.457 nM in experiment [1] and 0.253 nM in experiment [2]. For the same molecule, the koff came to 0.000658 s⁻¹ in experiment [1] and 0.000468 s⁻¹ in experiment [2]. In addition, the kon in experiment [1] is 1.44e+06 M⁻¹ s⁻¹; in experiment [2], 1.85e+06 M⁻¹ s⁻¹. Further, the “Average IC50” value in experiment [3] came out at 0.13 nM; in experiment [4] it was 0.161 nM; in experiment [5], 0.3 nM. Further, in experiment [6], the binding result is reported as “no binding (tested: 0.1 to 100 ng/ml)”.

B5: 5F1 (antibody, V domains shown)
VH: QVQLQQSGAELARPGTSVKLSCKASGYTFTTYGISWVKQRTGQGLEWIGEIYPGSYNTYYNEKFRGKATLTADKSSSTAYMQLSSLTSEDSAVYFCSRWRTSYFSDYGYFDYWGQGTTLTVSS
VL: DVVMTQTPLSLPVSLGDQASISCRSSQSLVHSHGNTYLHWYLQKPGQSPKLLIYTVSNRFSGVPDRFSGSGSGTDFTLKISRVEAEDLGVYFCSQSTHVPYTFGGGTKLEIKR
On to B5, for which the Kd in experiment [1] was determined as 0.0289 nM; in experiment [2], 0.0314 nM. In addition, the koff in experiment [1] came out at 2.24e-05 s⁻¹; in experiment [2], 1.57e-05 s⁻¹. The kon in experiment [1] was 774000 M⁻¹ s⁻¹; in experiment [2], 502000 M⁻¹ s⁻¹. The “Average IC50” value in experiment [3] was found to be 0.097 nM; in experiment [4] it was 1.88 nM; in experiment [5], 0.09 nM. Moreover, the binding result in experiment [6] is recorded as “no binding (tested: 0.1 to 100 ng/ml)”.

B6: 5G1 (antibody, V domains shown)
VH: B5 VH with I34V, S55N
VL: B5 VL
Consider B6, for which the Kd came to 0.00877 nM in experiment [1] and 0.13 nM in experiment [2]. Also, the off-rate (koff) in experiment [1] stood at 5.49e-06 s⁻¹; in experiment [2], 2.05e-05 s⁻¹. Besides, the kon in experiment [1] turned out to be 626000 M⁻¹ s⁻¹; in experiment [2], 157000 M⁻¹ s⁻¹. Moreover, the “Average IC50” value stood at 0.076 nM in experiment [3], 0.612 nM in experiment [4] and 0.048 nM in experiment [5]. The binding result in experiment [6] is reported as “no binding (tested: 0.1 to 100 ng/ml)”.

B7: 29G5 (antibody, V domains shown)
VH: QVTLKESGPGILQPSQTLSLTCSFSGFSLSTSDMGVDWIRQPSGKDLEWLAHIWWDDVKRYNPALKSRLTISKDTSSSQVFLMLASVDTADTATYYCARIVSSGYIYYALDYWGQGTSVTVSS
VL: DIQMTQTASSLSASLGDRVTISCRASQDIRNYLNWYQRKPDGTVKLLIYYTSRLHSGVPSRFSGSGSGTDYSLTISNLEQEDIATYFCQQGNTLPLTFGGGTKLEIKR
On to B7, for which the Kd stood at 0.204 nM in experiment [1] and 0.329 nM in experiment [2]. Besides, the off-rate (koff) amounted to 0.000175 s⁻¹ in experiment [1] and 0.000104 s⁻¹ in experiment [2]. In addition, the kon turned out to be 859000 M⁻¹ s⁻¹ in experiment [1] and 316000 M⁻¹ s⁻¹ in experiment [2]. Besides, the “Average IC50” value in experiment [3] was determined as 0.29 nM; in experiment [4], 4.39 nM; in experiment [5], 0.2 nM. Also, in experiment [6], the binding result is listed as “no binding (tested: 0.1 to 100 ng/ml)”.

B8: 33C3 (antibody, V domains shown)
VH: B7 VH with M34L, D37G, D46G, L84I, V101G, A109E, L110M
VL: B7 VL with A8T, S22T, R38Q, E79D, K103R
In the case of B8, the figures for the Kd in experiment [1] and in experiment [2] were 0.0639 nM and 0.124 nM, respectively. Moreover, the koff in experiment [1] worked out at 0.000149 s⁻¹; in experiment [2] it was 9.59e-05 s⁻¹. Moreover, the figures for the kon in experiment [1] and in experiment [2] were 2.33e+06 M⁻¹ s⁻¹ and 770000 M⁻¹ s⁻¹, respectively. In addition, the “Average IC50” value worked out at 0.15 nM in experiment [3], 0.847 nM in experiment [4] and 0.1 nM in experiment [5]. In addition, the binding result in experiment [6] is on record as “no binding (tested: 0.1 to 100 ng/ml)”.

B9: 4A8 (antibody, V domains shown)
VH: EVQLQQSGAEFVRPGALVKLSCKASGFNIKDYYMYWVKQRPEQGLEWIGRIDPENGNTIYDPKFQGKASITGDTSSNTAYLQLSSLTSEDTAVYYCARYAYYGPFDYWGQGTTLTVSS
VL: QAVVTQESALTTSPGETVTLTCRSSIGTVTTNNYANWVQEKPDHLFTGLIGSTNNRAPGVPARFSGSLIGDKAALTITGAQTEDEAIYFCALWYSNHWVFGGGTKLTVLG
For the molecule B9, the Kd came to 0.089 nM in experiment [1] and 0.157 nM in experiment [2]. Further, in experiment [5], the “Average IC50” value was found to be 0.27 nM. In addition, the binding result in experiment [6] is “no binding (tested: 0.1 to 100 ng/ml)”.
